Measured values published in paper PMC7895427, “A stapled peptide mimetic of the CtIP tetramerization motif interferes with double-strand break repair and replication fork protection” (Science Advances, 2021).
Positions of bridges follow the written chain, without caps; N, C: chain ends. Non-standard residues stand in square brackets, D forms with d. *: point of attachment. FITC = O=C1OC2(c3ccc(O)cc3Oc3cc(O)ccc32)c2ccc(NC(=S)*)cc21; R8 = C=CCCCCCC[C@@](C)(N)C(=O)O; S5 = C=CCCC[C@](C)(N)C(=O)O

B2: CtIP-NTD^18–145 (domain or fragment, human, UniProt Q99708 18-145, looked up)
chain: SDFKDLWTKLKECHDREVQGLQVKVTKLKQERILDAQRLEEFFTKNQQLREQQKVLHETIKVLEDRLRAGLCDRCAVTEEHMRKKQQEFENIRQQNLKLITELMNERNTLQEENKKLSEQLQQKIEND
notes: not shown: His6, N-terminal, cleaved; MBP, N-terminal, cleaved

Columns and labels:
CtIP-NTD^18–145 = target: B2; assay: fluorescence polarisation; FITC-labeled peptide (1 mg/ml stock diluted 1:10,000) mixed with serially diluted CtIP-NTD; 20 mM tris (pH 8.0), 150 mM NaCl; 10 min at RT; nonlinear regression with Hill slope; details: both partners purified
[1] = target: the molecule itself; assay: cross-linking; 1 or 2 μg recombinant protein with or without peptide in PBS, 30 min at RT; 100 μM disuccinimidyl suberate, 30 min at RT; SDS-PAGE and staining
[2] = target: the molecule itself; assay: cell-based or functional assay
[3] = target: the molecule itself; assay: SEC-MALS; full-length CtIP 10 μM with 0, 20 or 250 μM peptide; 1 hour on ice, then 30 min at RT; Superose 6 10/300 in 20 mM tris (pH 8.0), 200 mM NaCl, 0.5 mM TCEP

{FITC}-S[R8]FKDLWT[S5]LKECH-NH2 (staple 2-9) [FITC-labeled SP^18–31 (hydrocarbon-stapled peptide spanning the entire CtIP tetramerization motif)]
fold higher Kd than that of SP^18–28 on the same target (CtIP-NTD^18–145): ~100 fold

{FITC}-S[R8]FKDLWT[S5]LK-NH2 (staple 2-9) [FITC-labeled SP^18–28 (hydrocarbon-stapled peptide of CtIP residues 18 to 28)]
Kd (CtIP-NTD^18–145): 0.209 µM

B1: CtIP-NTD^(18–145, L27E) (domain or fragment, human, UniProt Q99708 18-145, looked up)
chain: SDFKDLWTKEKECHDREVQGLQVKVTKLKQERILDAQRLEEFFTKNQQLREQQKVLHETIKVLEDRLRAGLCDRCAVTEEHMRKKQQEFENIRQQNLKLITELMNERNTLQEENKKLSEQLQQKIEND
notes: as for B2
stoichiometry N [1]: 2

B2
stoichiometry N [1]: 4

B3: full-length recombinant CtIP wild type (natural protein, human, UniProt Q99708 1-897, looked up)
chain: MNISGSSCGSPNSADTSSDFKDLWTKLKECHDREVQGLQVKVTKLKQERILDAQRLEEFFTKNQQLREQQKVLHETIKVLEDRLRAGLCDRCAVTEEHMRKKQQEFENIRQQNLKLITELMNERNTLQEENKKLSEQLQQKIENDQQHQAAELECEEDVIPDSPITAFSFSGVNRLRRKENPHVRYIEQTHTKLEHSVCANEMRKVSKSSTHPQHNPNENEILVADTYDQSQSPMAKAHGTSSYTPDKSSFNLATVVAETLGLGVQEESETQGPMSPLGDELYHCLEGNHKKQPFEESTRNTEDSLRFSDSTSKTPPQEELPTRVSSPVFGATSSIKSGLDLNTSLSPSLLQPGKKKHLKTLPFSNTCISRLEKTRSKSEDSALFTHHSLGSEVNKIIIQSSNKQILINKNISESLGEQNRTEYGKDSNTDKHLEPLKSLGGRTSKRKKTEEESEHEVSCPQASFDKENAFPFPMDNQFSMNGDCVMDKPLDLSDRFSAIQRQEKSQGSETSKNKFRQVTLYEALKTIPKGFSSSRKASDGNCTLPKDSPGEPCSQECIILQPLNKCSPDNKPSLQIKEENAVFKIPLRPRESLETENVLDDIKSAGSHEPIKIQTRSDHGGCELASVLQLNPCRTGKIKSLQNNQDVSFENIQWSIDPGADLSQYKMDVTVIDTKDGSQSKLGGETVDMDCTLVSETVLLKMKKQEQKGEKSSNEERKMNDSLEDMFDRTTHEEYESCLADSFSQAADEEEELSTATKKLHTHGDKQDKVKQKAFVEPYFKGDERETSLQNFPHIEVVRKKEERRKLLGHTCKECEIYYADMPAEEREKKLASCSRHRFRYIPPNTPENFWEVGFPSTQTCMERGYIKEDLDPCPRPKRRQPYNAIFSPKGKEQKT
notes: human CtIP, full length (amino acids 1 to 897); also called CtIP-wt
HR frequency (percentage of GFP-positive U2OS EGFP-HR reporter cells after I-SceI) with 10 μM SP^18–28 for 24 hours [2]: ~3 fold decrease
stoichiometry N [3]: 4

B4: full-length recombinant CtIP-L27E (natural protein, human, UniProt Q99708 1-897, looked up)
chain: MNISGSSCGSPNSADTSSDFKDLWTKEKECHDREVQGLQVKVTKLKQERILDAQRLEEFFTKNQQLREQQKVLHETIKVLEDRLRAGLCDRCAVTEEHMRKKQQEFENIRQQNLKLITELMNERNTLQEENKKLSEQLQQKIENDQQHQAAELECEEDVIPDSPITAFSFSGVNRLRRKENPHVRYIEQTHTKLEHSVCANEMRKVSKSSTHPQHNPNENEILVADTYDQSQSPMAKAHGTSSYTPDKSSFNLATVVAETLGLGVQEESETQGPMSPLGDELYHCLEGNHKKQPFEESTRNTEDSLRFSDSTSKTPPQEELPTRVSSPVFGATSSIKSGLDLNTSLSPSLLQPGKKKHLKTLPFSNTCISRLEKTRSKSEDSALFTHHSLGSEVNKIIIQSSNKQILINKNISESLGEQNRTEYGKDSNTDKHLEPLKSLGGRTSKRKKTEEESEHEVSCPQASFDKENAFPFPMDNQFSMNGDCVMDKPLDLSDRFSAIQRQEKSQGSETSKNKFRQVTLYEALKTIPKGFSSSRKASDGNCTLPKDSPGEPCSQECIILQPLNKCSPDNKPSLQIKEENAVFKIPLRPRESLETENVLDDIKSAGSHEPIKIQTRSDHGGCELASVLQLNPCRTGKIKSLQNNQDVSFENIQWSIDPGADLSQYKMDVTVIDTKDGSQSKLGGETVDMDCTLVSETVLLKMKKQEQKGEKSSNEERKMNDSLEDMFDRTTHEEYESCLADSFSQAADEEEELSTATKKLHTHGDKQDKVKQKAFVEPYFKGDERETSLQNFPHIEVVRKKEERRKLLGHTCKECEIYYADMPAEEREKKLASCSRHRFRYIPPNTPENFWEVGFPSTQTCMERGYIKEDLDPCPRPKRRQPYNAIFSPKGKEQKT
notes: human CtIP, full length (amino acids 1 to 897), with L27E; L27E was introduced by site-directed mutagenesis of the 3xFLAG-CtIP-wt expression vector
stoichiometry N [3]: 2

B5: CtIP-NTD^32–145 (domain or fragment, human, UniProt Q99708 32-145, looked up)
chain: DREVQGLQVKVTKLKQERILDAQRLEEFFTKNQQLREQQKVLHETIKVLEDRLRAGLCDRCAVTEEHMRKKQQEFENIRQQNLKLITELMNERNTLQEENKKLSEQLQQKIEND
notes: also called N-terminal coiled-coil domain; not shown: His6, N-terminal, cleaved; MBP, N-terminal, cleaved
stoichiometry N [1]: 2
